Molecular target: T1, GDF5 homodimer (human) (UniProt P43026)
T1 sequence: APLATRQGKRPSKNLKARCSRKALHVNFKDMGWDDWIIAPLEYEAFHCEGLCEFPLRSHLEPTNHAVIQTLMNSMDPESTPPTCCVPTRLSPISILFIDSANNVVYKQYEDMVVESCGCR

Chain of Noggin (Q13253 28-232): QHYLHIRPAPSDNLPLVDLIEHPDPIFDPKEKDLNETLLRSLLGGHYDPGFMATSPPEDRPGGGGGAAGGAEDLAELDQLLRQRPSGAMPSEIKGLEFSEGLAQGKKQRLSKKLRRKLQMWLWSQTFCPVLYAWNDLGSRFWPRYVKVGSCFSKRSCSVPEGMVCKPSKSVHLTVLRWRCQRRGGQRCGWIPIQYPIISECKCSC

| IC50 of inhibition of signalling by 5 nM GDF5, luciferase reporter in BRITER osteoblast cells [nM] | Substance |
| --- | --- |
| 38 | Gremlin-2 (from UniProt O88273 22-168) (natural protein) |
| 42 | Noggin (from UniProt Q13253 28-232) (natural protein) |

— PMC9893541
